Results taken from a protein production outcome set (Wang et al. 2014).

Test: label from the status in PepcDB records

Row | Sequence | protein production
1 | AIAAAPIESLLNEICESEDPIEELKSLRTAVLATPVSGLRPAVSGARLEIIFSLLNTNDKEQIEVCVEILSRVLQALEPVQLAQNYRTALQSGLNHPDDSVKVLTLTQIGRVAGHTEGVTQMLNNVEILHDVIQCISVERIAVAKEAIAALSKLSNTKAGLDALFRSDLLNKLKDVMLTSDIIRYRVYELIVEVSTVSPVSLGYCANSGLISQMLEELTGDDVLVRATAIEMVTNLAQSQHGRQYLAQQGIMDKISSVQKIFGAHNYLKLKTYLNEGSYYVTAVSAVTTEGAD | failed
2 | DAFTDQKIRQRYADLPGELHIIELEKDKNGLGLSLAGNKDRSRMSIFVVGINPEGPAAADGRMRIGDELLEINNQILYGRSHQNASAIIKTAPSKVKLVFIRNEDAVNQMA | not failed
3 | MKITVFGATGNVGNRVITEALLRGHEITAVLRNNARANEFDSSVKVVIGHADNVDDVVKWSDGQDLIISATRPPQGLESQLVDTAKALLSGLAQTKVRLLLVGGAASLTVPNSNGMLVVDDTDLVPTAWRDIALACLAQHKLCQENESVDWSYISPPAVIVPGERTGIFRTGSDELLVDEQGQSTISLEDFAIALLDEAEVVKHKRKRFTVAYLEHHHHHH | failed
4 | MAAPVVVAPAINLQHMDLPEGNEDVAAVLQTSTQRWLNAAEWSILYNNHNLFPESNSFTIPIEVEGLYRVDNRFNQDSNTWRNTSAPSTCKNAINFYNVRIATGLYRFDDDGDIVMDAEVQGGWVLCRKTVRNRGGGVLTFAHYMWVLV | failed
5 | MGVSEISRSEEKSGIGFVKLFENNVVFPGFLVWMNQTIQEPLKAEFKRLRNVKELSLKSVSKIETAYEEHRDEEKLEKQLQAWRDNPSWIDQPPKVVVKSQNGLFCHLNIEADVGLPPELVYNIFTHPDNKRYFKNIKENISRKVLIDEGPKQTVEVKQAAAWKFLWWDGTCPIHLIVEENRKNLTSKYKQETTMFMKVFEGCWKVEPLFIDEHLCDRSKPKSQKDYHSCSNGRGRIGSKVTMDQMFQPSALLTPPPLSWYIRGITIKTTESMIEDLFAEATRLRGGKGGGYIDDQGENNVVTEKSKADDIKERWRSHRRSKRRRFTTARSM | failed
6 | MAGGYGVRSPGPCVQCLARPMTTPFWPGRERCASLASRDAFAARLFKRQKMESFLVSTGIVALAEMGDKTQLLSLVLAARYRKPIPIILGILIATLVNHGFAGALGGWITGMVGVDLLRWILGLGFIAMAGWMLIPDKLDDAEEAKPVKGALGILGTTIIAFFFAEMGDKTQIATVALAARFHGEVIAVVAGTTFGMMLANAPAVLLGDRFANKMPIALVHKIAAAIFLVLGLLALFNVGG | failed
7 | MLIQDLSHKNIKDYTSIYGEEYINRIVEKAEKLRDITLTHVNSTSLGGGVAEILYSLVPLMNSIGITTRWEVIKGGNEFFNVTKKIHNALQGAEIDLSDEEKRIYLENNKWNVENELVLDSTHIVVHDPQPLPIRKFAENNKKWIWRCHIDLSTPYKPVWLFISQLLRGYEASIFHLKEYIHPETPTPIKYVMPPSIDPLSDKNKELSWSTIEKILNRYGIDPEKPILLQVARFDPWKDPFAAIDVYRLVKKEFPDTQLLLVTSMATDDPEGWIYYEKTLKYAGMDEDIFILTNLKNVGTLEVNAFQRAATVVLQMSRREGFGLAVTEALWKRKPVVARPRGGIKLQVIDGVTGHLAETVEEAAKKTIYLIKNPQKRKELGENGYKHVLKHFTIVRHIENYLDLLAKIV | failed
8 | MGHHHHHHSHDDLEVGSIYRGKITRVEKYGVFVSLNSHVWGLMRGLFPDYKVGDELFVRVSQVKPYKGEVDMIPASIKGP | not failed
9 | MTLSAIQPNDMALYHYDSCPFCAKTRHAINELDLNIELRNIQKNHQHRIELQQGGNKTQVPCLRIGQSNGKAQWLYESGDIINFLRNRK | failed
10 | MAEITENTKKILEVILNLKEGQVMSYRDVGALAGLPNGARQVSRILHSMSKKYELPWWRVVRSDRTIGLPEPAKSEQMELLKKEGISFTAQGKIIIEDELLLEHHHHHH | not failed
11 | MIPELPHAQLDWDDQGRPRSRVFDDVYFSSESGLDETRHVFIEQNRLGQRFAALADGERFVIGETGFGTGLNFLCAWQLFQQQAPTGARLHFVSVEKYPLSPADLQRALALWPELASFSAPLLEQYVAVHGGFQRIVLEGGRVILTLLIGDALEQLPQLDAQVDAWFLDGFAPAKNPDMWTAELFAELARLAAPGSTISTFTSTGWVRRLLNSAGFKMKRTPGIGHKWEVLRGEFLGWPEDAPAPARARPWFARPALGEKTALVIGGGLAGCASAASLAARGWQVQLLERHAELAREASGNPQGVLYLKLSAHGTALSQMILSGFGYTRRQLEHLQRGQDWDGCGVLQLAFNAKEAERQAQLAAAFPADLLHLLDQPQAQARAGIGLEHGGLFYPEGGWVHPPALCQWQASHPRIQVLAHREVLELRRVDEQWQAWDGDRMLASAAVVILAGAAEIKRFPASADLPLKRIRGQITRLPQTAQSQSLATVVCAEGYVAPARLGEHTLGASFDFKSQDLTPTSAEHAGNLEMLREISSDLLQRLGAEQLPLDSLQGRAAFRCTSPDYLPIVGPLADPLAFAETYAALGKDARQVPDLPCPWLDGLYINSGHGSRGLITAPLSGELLAAWLENEPLPLPRSVAEACHPNRFALRRLIRGKA | failed
12 | MKAERPDTRKLKALKRGHIAEYRAALCLMLKGYRIVAMRYRTRLGEIDIIARRGDLVACVEVKARVSLEDAVFAVTDTAQRRIRAASDLWLSRQGDFHRLSVRYDIVAVTPWRWPRHLPDAF | failed
13 | MELDMGKVITAKRKEKSWTQEQLAQAVGVSTPAVSKWETGATYPDITLLPPIARALNTTVDELFSYQNELSDNDVSGFTQKATSLYEAEGFDAGWNYCQKLLQEFPNSIPLKFYLGNLFQSFMIMKTDLGKEDIQSCYRQAAILYEEVLLSGYPKFTYHATLILVGFYTMLNELDRAEELLDSLPKLKTDPDFLYPSIYALRGKNEEAMKLTQENIRRYISRVSHGLSLLGAFAREQEDMDKACTLAKMNLEITKLLGISREIAYADMIKIMVARGDKEAALTYLEEYTQHILELSYDYAKSPVFNRVTEKFQDPSYVKKVLAQSILIDKEYTPLKEEPRYLQIVHRLRQVIDTQTHTFRE | failed
14 | MICKLKLLSLPSYSSKPCNFYIHLKCSELPQKIRHPFDRNHLLSLISSPKYQEGRFRCNACGKDGDRLAYHCGDCGIDLHTVCANMPSRVTHQSHPHHQLSLTFSMPPGGPGSAAASSFQCCVCRGLGSNSWLYSCGECSGFDAHL | failed
15 | PARIDTLEIKLLFAGDIMTHGPQIESAKCEGGRVYDFSSSFDTLASRIGAADLAIGNLETTFAGAPYSGYPTFSSPDAMGEALKNAGFDVLTTANNHTADKGKKGIIRTLDMLDSLGIAHTGSYRDIFDRDKMTPLILEVKGVRIAILAYTYGTNGMPVPAPTWVDPIDTVMIKKDLLRADSLGADYRIVQIHWGIEYRKEPDSEQLELARKLHRYGADAIIGSHPHVV | failed
16 | MSEQKEDLFKPVGEAAAEVEDESIAEQNKANDGVKLTGAQDAMGHPVQEIESLCMNCGKNGTTRLLLTSIPYFREIIIMSFDCPHCGFKNCEIQPASQIQEKGSRYVLKVECREDFNRQVIKSETATCKFVELDIEIPAKRGQLTTVEGLLSEMIDDLSQDQEMRKSIDEALYKKIDDFIQKVKSYINCEPNTIPITFILDDPAGNSWIEYKPGEPQHKWSHTQYVRTDEQNVQVGIITRDQLEQRRQEQLKQLANRERNPSESVKVGSANPQFLSDATDIENFNNEVQTFRASCPSCTQECETHMKPVNIPHFKEVIIMSTVCDHCGYKSNEVKTGGAIPDKGRRITLYCDDAADLSRDILKSETCSMVIPELHLDIQEGTLGGRFTTLEGLLRQVYEELESRIFTQTSDSMDEATKARWVEFFAKLKEAIAGKVKFTVIMEDPLAGSYIQNVYAPDPDPNMTIEDYERTKEQNEDLGLSDIKVE | failed
